Measurements reported in patent publication US20040176301A1 (CYCLACEL, published 2004).
Where two headings read alike, the source gives them in different places. Square brackets hold non-standard residues; d marks the D form. Ends that are not written are not given here. * marks the point of attachment. Biotin = O=C1N[C@H]2[C@H](CS[C@H]2CCCCC(=O)*)N1; Nle = CCCC[C@H](N)C(=O)O; Abu = CC[C@H](N)C(=O)O; Aib = CC(C)(N)C(=O)O; Ahx = NCCCCCC(=O)O; Sar = CNCC(=O)O

Columns and labels:
[1] = biological target: recombinant CDK2/cyclin A (UniProt P20248 1-432; P24941 1-298); test: cell-based or functional assay
[2] = biological target: T1, CDK2/cyclin A (UniProt P24941 1-298; P20248 1-432); test: cell-based or functional assay
[3] = biological target: T1, CDK2/cyclin A; test: cell-based or functional assay; remark: listed apart in the source
[4] = biological target: CDK2/cyclin A complex (UniProt P24941 1-298; P20248 1-432); test: cell-based or functional assay
[5] = biological target: T1, CDK2/cyclin A; test: cell-based or functional assay; remark: listed apart in the source
[6] = biological target: T2, CDK2/Cyclin E complex (UniProt P24941 1-298; P24864 1-410); test: cell-based or functional assay
[7] = biological target: T3, CDK4/Cyclin D1 complex (UniProt P11802 1-303; P24385 1-295); test: cell-based or functional assay
[8] = biological target: CDK1/Cyclin B complex (UniProt P06493 1-297; P14635 1-433); test: cell-based or functional assay
[9] = biological target: T2, CDK2/Cyclin E complex; test: cell-based or functional assay; remark: listed apart in the source
[10] = biological target: T3, CDK4/Cyclin D1 complex; test: cell-based or functional assay; remark: listed apart in the source
[11] = biological target: T4, Cyclin D1 (UniProt P24385 1-295, limits assumed); test: competitive ELISA: cyclin D1 binding to immobilised biotinyl-Ahx-p21(149-159)
Excerpt: The amount of bound Cyclin D1/Cyclin A was immunodetected and quantified by Turbo-ELISA reagent (PIERCE).

[12] = biological target: T4, Cyclin D1; test: pull-down, biotinylated peptide on streptavidin-agarose; SDS-PAGE, Western blot
Excerpt: (§1) The biotinylated peptide was pre-immobilised on streptavidin-agarose beads.

[13] = biological target: CDK2 (UniProt P24941 1-298); test: pull-down with biotinylated peptide on streptavidin-agarose beads; SDS-PAGE, Western blot
Excerpt: as §1

[14] = biological target: T5, CDK4 (UniProt P11802 1-303); test: as above
T5 construct: also called CDK4-6×His
Excerpt: as §1

[15] = biological target: Cyclin A (UniProt P20248 173-432, limits assumed); test: competitive cyclin A binding ELISA, competitor: immobilised p21 peptide

T4 sequence (P24385 whole entry): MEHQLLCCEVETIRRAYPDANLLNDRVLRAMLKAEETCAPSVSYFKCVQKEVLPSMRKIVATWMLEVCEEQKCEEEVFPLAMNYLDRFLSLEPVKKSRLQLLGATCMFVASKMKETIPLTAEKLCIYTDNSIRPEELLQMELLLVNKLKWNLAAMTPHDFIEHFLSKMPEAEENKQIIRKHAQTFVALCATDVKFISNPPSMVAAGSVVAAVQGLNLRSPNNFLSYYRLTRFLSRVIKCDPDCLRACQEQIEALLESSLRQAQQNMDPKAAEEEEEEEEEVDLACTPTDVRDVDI
T3 sequence (P11802 other isoform, or with tags, fused parts or gaps, chain 1 of 2): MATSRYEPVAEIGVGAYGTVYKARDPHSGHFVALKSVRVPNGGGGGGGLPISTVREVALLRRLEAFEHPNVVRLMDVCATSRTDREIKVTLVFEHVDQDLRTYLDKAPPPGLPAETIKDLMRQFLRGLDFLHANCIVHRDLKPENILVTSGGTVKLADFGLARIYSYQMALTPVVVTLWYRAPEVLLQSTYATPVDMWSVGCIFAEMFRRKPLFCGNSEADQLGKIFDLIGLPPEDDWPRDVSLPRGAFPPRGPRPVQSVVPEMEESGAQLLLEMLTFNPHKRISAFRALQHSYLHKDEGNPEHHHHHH
T3 sequence (P24385 whole entry, chain 2 of 2): as the sequence (P24385 whole entry) above
Sequence of CDK1/Cyclin B complex (P06493 other isoform, or with tags, fused parts or gaps, chain 1 of 2): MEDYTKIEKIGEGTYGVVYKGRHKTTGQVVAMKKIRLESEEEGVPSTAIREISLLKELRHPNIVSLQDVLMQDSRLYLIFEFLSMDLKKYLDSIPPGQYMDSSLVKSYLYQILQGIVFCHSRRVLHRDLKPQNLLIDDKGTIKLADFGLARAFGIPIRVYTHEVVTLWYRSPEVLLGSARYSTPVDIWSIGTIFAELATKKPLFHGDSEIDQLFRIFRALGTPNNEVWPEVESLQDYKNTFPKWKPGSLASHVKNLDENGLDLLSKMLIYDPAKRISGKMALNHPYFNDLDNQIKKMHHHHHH
Sequence of CDK1/Cyclin B complex (P14635 other isoform, or with tags, fused parts or gaps, chain 2 of 2): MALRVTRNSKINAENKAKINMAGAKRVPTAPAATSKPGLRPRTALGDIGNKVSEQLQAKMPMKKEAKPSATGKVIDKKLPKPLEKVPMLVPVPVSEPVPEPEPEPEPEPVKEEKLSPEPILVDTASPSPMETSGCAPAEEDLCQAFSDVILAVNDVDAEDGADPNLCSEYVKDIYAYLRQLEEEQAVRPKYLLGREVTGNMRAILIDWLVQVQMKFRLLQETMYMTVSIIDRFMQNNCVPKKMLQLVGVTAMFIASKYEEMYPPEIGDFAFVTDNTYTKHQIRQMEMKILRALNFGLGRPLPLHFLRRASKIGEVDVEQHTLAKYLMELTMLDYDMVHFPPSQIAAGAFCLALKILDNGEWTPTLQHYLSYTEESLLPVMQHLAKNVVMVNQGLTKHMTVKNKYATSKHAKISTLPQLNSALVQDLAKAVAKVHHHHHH
T5 sequence (P11802 other isoform, or with tags, fused parts or gaps limits assumed): as the sequence (P11802 other isoform, or with tags, fused parts or gaps, chain 1 of 2) above

B1: Ac-Arg-Arg-Leu-Asn-Phe-NH2 (peptide)
peptide: Ac-RRLNF-NH2
B1 was tested, and the “Kinase IC50 (µM) CyclinA/CDK2” value [1] was 37.2 µM.

B2: H-His-Ala-Arg-Arg-Arg-Leu-Ile-Phe-NH2 (peptide)
peptide: H-HARRRLIF-NH2
B2 was tested, and the “Relative activity, Kinase Inhibition (CDK2/cyclin A kinase assay, pRb substrate, [ATP] = 100 µM)” value [2] was 5.7 relative to H-His-Ala-Lys-Arg-Arg-Leu-Ile-Phe-NH2 (=1).

B3: H-His-Ala-Lys-Gln-Arg-Leu-Ile-Phe-NH2 (peptide)
peptide: H-HAKQRLIF-NH2
With B3 the “Relative activity, Kinase Inhibition (CDK2/cyclin A kinase assay, pRb substrate, [ATP] = 100 µM)” value [3] was < 0.1 relative to H-His-Ala-Lys-Arg-Arg-Leu-Ile-Phe-NH2 (=1).

B4: H-Pya-Ala-Lys-Arg-Arg-Leu-Ile Phe-NH2 (peptide)
peptide: XAKRRLIF
modifications: Pya (3-pyridylalanine) at position 1; C-terminal amide
With B4 the “Relative activity, CDK2/cyclin A kinase inhibition (pRb substrate)” value [4] was < 0.1 relative to HAKRRLIF-NH2.

B5: H-His-Ala-Lys-Arg-Asn-Leu-Ile-Phe-NH2 (peptide)
peptide: H-HAKRNLIF-NH2
B5 was tested, and the “Relative activity, Kinase Inhibition (CDK2/cyclin A kinase assay, pRb substrate, [ATP] = 100 µM)” value [5] was < 0.1 relative to H-His-Ala-Lys-Arg-Arg-Leu-Ile-Phe-NH2 (=1).

B6: H-His-Ala-Lys-Arg-Sar-Leu-Ile-Phe-NH2 (peptide)
peptide: H-HAKR[Sar]LIF-NH2
SMILES: CC[C@H](C)[C@H](NC(=O)[C@H](CC(C)C)NC(=O)CN(C)C(=O)[C@H](CCCNC(=N)N)NC(=O)[C@H](CCCCN)NC(=O)[C@H](C)NC(=O)[C@@H](N)Cc1c[nH]cn1)C(=O)N[C@@H](Cc1ccccc1)C(N)=O
B6 was tested, and the “Relative activity, Kinase Inhibition (CDK2/cyclin A kinase assay, pRb substrate, [ATP] = 100 µM)” value [5] was < 0.1 relative to H-His-Ala-Lys-Arg-Arg-Leu-Ile-Phe-NH2 (=1).

B7: p21 (149-159) DFYHSKRRLIF-NH2 (peptide)
peptide: DFYHSKRRLIF-NH2
With B7 the “% Inhibition, cyclin E/CDK2 kinase” value [6] was 75%, the “IC50, cyclin E/CDK2 kinase, GST-pRb” value [6] was 2 µM and the “% Inhibition, cyclin D1/CDK4 kinase” value [7] was 70%. For the same binder, the “IC50, cyclin D1/CDK4 kinase, GST-pRb” value [7] was 13 µM and the “IC50, CDK1-Cyclin B phosphorylation of GST-Rb” value [8] was greater than 200 µM.

B8: E2F1 peptide PVKRRLDL-NH2 (peptide)
peptide: PVKRRLDL-NH2
notes: Derived from E2F1
In the case of B8, the “% Inhibition, cyclin E/CDK2 kinase” value [9] is reported as 74%, the “IC50, cyclin E/CDK2 kinase” value [9] is reported as 2.1 µM and the “% Inhibition, cyclin D1/CDK4 kinase” value [10] is reported as 58%. The “IC50, cyclin D1/CDK4 kinase” value [10] was 99 µM and the IC50 [11] was greater than 100 µM.

B9: biotinyl-Ahx-Asp-Phe-Tyr-His-Ser-Lys-Arg-Arg-Leu-Ile-Phe-NH (peptide)
peptide: Biotin-[Ahx]DFYHSKRRLIF-NH2
SMILES: CC[C@H](C)[C@H](NC(=O)[C@H](CC(C)C)NC(=O)[C@H](CCCNC(=N)N)NC(=O)[C@H](CCCNC(=N)N)NC(=O)[C@H](CCCCN)NC(=O)[C@H](CO)NC(=O)[C@H](Cc1c[nH]cn1)NC(=O)[C@H](Cc1ccc(O)cc1)NC(=O)[C@H](Cc1ccccc1)NC(=O)[C@H](CC(=O)O)NC(=O)CCCCCNC(=O)CCCC[C@@H]1SC[C@@H]2NC(=O)N[C@@H]21)C(=O)N[C@@H](Cc1ccccc1)C(N)=O
notes: immobilised on streptavidin
B9: binds [12]; no binding [13]; no binding [14].

B10: H-Dab-Ala-Lys-Arg-Arg-Leu-Ile Phe-NH2 (peptide)
peptide: XAKRRLIF
modifications: Dab (diaminobutyric acid) at position 1; C-terminal amide
In the case of B10, the “Relative activity, CDK2/cyclin A kinase inhibition (pRb substrate)” value [4] is reported as 5 relative to HAKRRLIF-NH2.

B11: H-His-Ala-Abu-Arg-Arg-Leu-Ile-Phe-NH2 (peptide)
peptide: H-HA[Abu]RRLIF-NH2
SMILES: CC[C@H](NC(=O)[C@H](C)NC(=O)[C@@H](N)Cc1c[nH]cn1)C(=O)N[C@@H](CCCNC(=N)N)C(=O)N[C@@H](CCCNC(=N)N)C(=O)N[C@@H](CC(C)C)C(=O)N[C@H](C(=O)N[C@@H](Cc1ccccc1)C(N)=O)[C@@H](C)CC
With B11 the “Relative activity, Kinase Inhibition (CDK2/cyclin A kinase assay, pRb substrate, [ATP] = 100 µM)” value [2] was 0.8 relative to H-His-Ala-Lys-Arg-Arg-Leu-Ile-Phe-NH2 (=1).

B12: H-His-Ala-Lys-Arg-Aib-Leu-Ile-Phe-NH2 (peptide)
peptide: H-HAKR[Aib]LIF-NH2
SMILES: CC[C@H](C)[C@H](NC(=O)[C@H](CC(C)C)NC(=O)C(C)(C)NC(=O)[C@H](CCCNC(=N)N)NC(=O)[C@H](CCCCN)NC(=O)[C@H](C)NC(=O)[C@@H](N)Cc1c[nH]cn1)C(=O)N[C@@H](Cc1ccccc1)C(N)=O
With B12 the “Relative activity, Kinase Inhibition (CDK2/cyclin A kinase assay, pRb substrate, [ATP] = 100 µM)” value [5] was < 0.1 relative to H-His-Ala-Lys-Arg-Arg-Leu-Ile-Phe-NH2 (=1).

B13: P21 C-terminus-LDL hybrid HSKRRLDL-NH2 (peptide)
peptide: HSKRRLDL-NH2
For B13, the “% Inhibition, cyclin E/CDK2 kinase” value [9] was 74%, the “% Inhibition, cyclin D1/CDK4 kinase” value [10] was 24% and the IC50 [11] was greater than 200 µM.

B14: GST-pRb(772-928) (other, UniProt P06400 772-928, looked up)
chain: ASTRPPTLSPIPHIPRSPYKFPSSPLRIPGGNIYISPLKSPYKISEGLPTPTKMTPRSRILVSIGESFGTSEKFQKINQMVCNSDRVLKRSAEGSNPPKPLKKLRFDIEGSDEADGSKHLPGESKFQQKLAEMTSTRTRMQKQKMNDSMDTSNKEEK
notes: range 772-928; Limits of the pRb part are printed inconsistently; also called GST-Rb; GST-Rb(772-928); not shown: glutathione S-transferase (GST) fusion partner
In the case of B14, the IC50 [15] is reported as 9 µM.

B15: H-His-Ala-Nle-Arg-Arg-Leu-Ile-Phe-NH2 (peptide)
peptide: H-HA[Nle]RRLIF-NH2
SMILES: CCCC[C@H](NC(=O)[C@H](C)NC(=O)[C@@H](N)Cc1c[nH]cn1)C(=O)N[C@@H](CCCNC(=N)N)C(=O)N[C@@H](CCCNC(=N)N)C(=O)N[C@@H](CC(C)C)C(=O)N[C@H](C(=O)N[C@@H](Cc1ccccc1)C(N)=O)[C@@H](C)CC
With B15 the “Relative activity, Kinase Inhibition (CDK2/cyclin A kinase assay, pRb substrate, [ATP] = 100 µM)” value [2] was 0.3 relative to H-His-Ala-Lys-Arg-Arg-Leu-Ile-Phe-NH2 (=1).
